From US20140275487A1 (VIB VZW, published 2014)

Target: T1, agonist-bound β2AR-356 reconstituted at high density into phospholipid vesicles (UniProt P07550 1-365)
T1 construct: Solid phase coated on Maxisorb plates for ELISA; also called purified receptor alone; reconstituted receptor alone
Test: ELISA on purified receptor alone

binding result | Binder
no binding | Nanobody 33 (CA4433) (VHH, Tested as periplasmic extract in ELISA; also called Nb33) VHH: QVQLQESGGGLVQPGGSLRLSCAASGFTFSNYVMNWVRQAPGKGLEWVSDISNGGGTTSYASSVKGRFTISRDNAKNTLYLQMNGLKPADTAVYYCARCPAPFTNDCMDITSTTYAYRGQGTQVTVSS
no binding | Nanobody 36 (CA4436) (VHH, also called Nb36) VHH: QVQLQESGGGSVQAGGSLRLSCTVSGTIFSVTVMGWYRQAPGKQRELVAGFTNTRNTNYVDSVKGRFTISKDSAKNTMYLQMNSLKPEDTAVYYCNVRRWGGTNWNDYWGQGTQVTVSS

More lines, now with the values behind:

Binder | binding result
Nanobody 37 (CA4437) (VHH, also called Nb37) VHH: QVQLQESGGGFVQAGGSLRLSCAASGSIFSKNTMAWFRQAPGKERELVAASPTGGSTAYKDSVKGRFTISRDSAKNTVLLQMNVLKPEDTAVYYCHLRQNNRGSWFHYWGQGTQVTVSS | no binding
Nanobody 40 (CA4440) (VHH, Tested as periplasmic extract in ELISA; also called Nb40) VHH: QVQLQESGGGLVQAGGSLRLSCAVSGTIFDITPMGWYRQTPGKQREVVADLTSRGTTNYADSVKGRFTISRDNAKKMLYLQMNSLKSDDTGVYYCNVKRWGGIGWNDYWGQGTQVTVSS | no binding
Nanobody 35 (CA4435) (VHH, Llama VHH raised against the BS2G cross-linked β2AR:Gs:BI167107 complex; expressed in E. coli periplasm; also called Nb35; NB35) VHH: QVQLQESGGGLVQPGGSLRLSCAASGFTFSNYKMNWVRQAPGKGLEWVSDISQSGASISYTGSVKGRFTISRDNAKNTLYLQMNSLKPEDTAVYYCARCPAPFTRDCFDVTSTTYAYRGQGTQVTVSS | no binding
Nanobody 41 (CA4441) (VHH, Tested as periplasmic extract in ELISA; also called Nb41) VHH: QVQLQESGGGLVQSGGSLRLSCVASGFRFSNFPMMWVRQAPGKGLEWVSLISIGGSTTNYADSVKGRFTISRDNAKNTLFLQMNSLKPEDTAVYYCAKYLGRLVPPTTEGQGTQVTVSS | no binding
